Laboratory results taken from patent publication US5587468.

Target: HIV-1 integrase (Human immunodeficiency virus 1 (BH10)) (UniProt P03366)
Assay: FP filter
[1] = 50 mM NaCl, stated about same Kd as 30N RNA
[2] = nitrocellulose filter, 250 mM NaCl, printed as 20x10^-6, data not shown

| Substance | Kd [1] [nM] | Kd [2] [nM] |
| --- | --- | --- |
| U5 21-mer ds | 25 | > 20000 |
| U5 21-mer ss | 25 | > 20000 |
